Data on ten molecules can be found in US20260098059A1 (ENDOMET BIOSCIENCES, published 2026).

As a reminder, the Kd is the constant that tells how readily two partners part at equilibrium. Read a low Kd as a tighter complex.

Where “and” joins values, the source holds several entries; their conditions need not be identical. Equal entries are not always repeated. [ ]: non-standard residue; d: D form. The star is where a group is joined. NMeW = CN[C@@H](Cc1c[nH]c2ccccc12)C(=O)O; Stearoyl = CCCCCCCCCCCCCCCCCC(=O)*; αMeV = CC(C)[C@](C)(N)C(=O)O; αMeS = C[C@](N)(CO)C(=O)O

T1: β-catenin (UniProt P35222 134-665, limits assumed, biotinylated in the SPR and plate assays)
T1 construct: also called beta catenin; biotinylated β-catenin
T1 sequence (looked up): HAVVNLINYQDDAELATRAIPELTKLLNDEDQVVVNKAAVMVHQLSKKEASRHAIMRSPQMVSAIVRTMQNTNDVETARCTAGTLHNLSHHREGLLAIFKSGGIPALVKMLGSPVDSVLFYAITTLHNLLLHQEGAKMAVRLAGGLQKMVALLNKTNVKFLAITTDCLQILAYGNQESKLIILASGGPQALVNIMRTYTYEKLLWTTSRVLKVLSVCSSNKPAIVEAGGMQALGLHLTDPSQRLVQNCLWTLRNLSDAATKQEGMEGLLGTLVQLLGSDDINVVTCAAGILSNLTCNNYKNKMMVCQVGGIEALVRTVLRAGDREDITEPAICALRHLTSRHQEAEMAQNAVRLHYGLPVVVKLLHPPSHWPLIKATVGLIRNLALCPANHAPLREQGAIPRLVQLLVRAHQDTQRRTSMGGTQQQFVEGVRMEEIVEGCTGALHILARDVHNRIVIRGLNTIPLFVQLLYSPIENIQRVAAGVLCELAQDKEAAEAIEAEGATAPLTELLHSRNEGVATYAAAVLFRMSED

T2: β-catenin in mouse endometriosis lesions (mouse, UniProt Q02248 2-781)
T2 construct: Endogenous protein in fixed tissue sections; also called cytoplasmic β-catenin
T2 sequence (looked up): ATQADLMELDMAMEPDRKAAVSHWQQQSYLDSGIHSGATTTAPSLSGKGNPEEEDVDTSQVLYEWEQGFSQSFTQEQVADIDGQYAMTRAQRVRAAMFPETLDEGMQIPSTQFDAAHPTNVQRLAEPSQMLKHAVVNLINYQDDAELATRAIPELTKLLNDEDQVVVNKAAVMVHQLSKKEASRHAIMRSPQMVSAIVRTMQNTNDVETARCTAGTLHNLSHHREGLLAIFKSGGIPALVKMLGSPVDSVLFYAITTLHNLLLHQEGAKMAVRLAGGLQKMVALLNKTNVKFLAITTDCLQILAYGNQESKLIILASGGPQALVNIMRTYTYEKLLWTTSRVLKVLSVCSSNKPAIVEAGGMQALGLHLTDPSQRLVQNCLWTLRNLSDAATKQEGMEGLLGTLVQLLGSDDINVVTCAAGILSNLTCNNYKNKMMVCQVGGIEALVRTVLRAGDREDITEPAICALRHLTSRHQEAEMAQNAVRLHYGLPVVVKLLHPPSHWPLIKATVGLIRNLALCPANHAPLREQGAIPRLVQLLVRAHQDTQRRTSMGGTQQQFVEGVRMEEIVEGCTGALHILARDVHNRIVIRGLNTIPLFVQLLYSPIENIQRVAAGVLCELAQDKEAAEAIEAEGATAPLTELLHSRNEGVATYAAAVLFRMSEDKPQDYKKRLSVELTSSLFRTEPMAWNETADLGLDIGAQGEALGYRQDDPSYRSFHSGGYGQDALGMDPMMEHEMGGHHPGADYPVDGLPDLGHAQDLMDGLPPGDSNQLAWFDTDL

B1: SEQ ID NO: 29 (peptide)
peptide: KMPLAISWFEHIG
HELM: PEPTIDE1{K.M.P.L.[meA].I.S.W.F.E.H.I.G}$PEPTIDE1,PEPTIDE1,1:R3-13:R2$$$V2.0
SMILES: CC[C@H](C)[C@@H]1NC(=O)[C@H](Cc2c[nH]cn2)NC(=O)[C@H](CCC(=O)O)NC(=O)[C@H](Cc2ccccc2)NC(=O)[C@H](Cc2c[nH]c3ccccc23)NC(=O)[C@H](CO)NC(=O)[C@H]([C@@H](C)CC)NC(=O)[C@H](C)N(C)C(=O)[C@H](CC(C)C)NC(=O)[C@@H]2CCCN2C(=O)[C@H](CCSC)NC(=O)[C@@H](N)CCCCNC(=O)CNC1=O
B2: SEQ ID NO: 24 (peptide)
peptide: KMSRMWFLISFWRG
HELM: PEPTIDE1{K.M.S.R.M.W.F.L.I.S.F.W.R.G}$PEPTIDE1,PEPTIDE1,1:R3-14:R2$$$V2.0
SMILES: CC[C@H](C)[C@@H]1NC(=O)[C@H](CC(C)C)NC(=O)[C@H](Cc2ccccc2)NC(=O)[C@H](Cc2c[nH]c3ccccc23)NC(=O)[C@H](CCSC)NC(=O)[C@H](CCCNC(=N)N)NC(=O)[C@H](CO)NC(=O)[C@H](CCSC)NC(=O)[C@@H](N)CCCCNC(=O)CNC(=O)[C@H](CCCNC(=N)N)NC(=O)[C@H](Cc2c[nH]c3ccccc23)NC(=O)[C@H](Cc2ccccc2)NC(=O)[C@H](CO)NC1=O
B3: SEQ ID NO: 18 (peptide)
peptide: KAESILDEHVQRVWG
HELM: PEPTIDE1{K.[meA].E.S.I.L.D.E.H.V.Q.R.V.W.G}$PEPTIDE1,PEPTIDE1,1:R3-15:R2$$$V2.0
SMILES: CC[C@H](C)[C@@H]1NC(=O)[C@H](CO)NC(=O)[C@H](CCC(=O)O)NC(=O)[C@H](C)N(C)C(=O)[C@@H](N)CCCCNC(=O)CNC(=O)[C@H](Cc2c[nH]c3ccccc23)NC(=O)[C@H](C(C)C)NC(=O)[C@H](CCCNC(=N)N)NC(=O)[C@H](CCC(N)=O)NC(=O)[C@H](C(C)C)NC(=O)[C@H](Cc2c[nH]cn2)NC(=O)[C@H](CCC(=O)O)NC(=O)[C@H](CC(=O)O)NC(=O)[C@H](CC(C)C)NC1=O
B4: SEQ ID NO: 19 (peptide)
peptide: KAQSILDEHVQRVWG
HELM: PEPTIDE1{K.[meA].Q.S.I.L.D.E.H.V.Q.R.V.W.G}$PEPTIDE1,PEPTIDE1,1:R3-15:R2$$$V2.0
SMILES: CC[C@H](C)[C@@H]1NC(=O)[C@H](CO)NC(=O)[C@H](CCC(N)=O)NC(=O)[C@H](C)N(C)C(=O)[C@@H](N)CCCCNC(=O)CNC(=O)[C@H](Cc2c[nH]c3ccccc23)NC(=O)[C@H](C(C)C)NC(=O)[C@H](CCCNC(=N)N)NC(=O)[C@H](CCC(N)=O)NC(=O)[C@H](C(C)C)NC(=O)[C@H](Cc2c[nH]cn2)NC(=O)[C@H](CCC(=O)O)NC(=O)[C@H](CC(=O)O)NC(=O)[C@H](CC(C)C)NC1=O
B5: SEQ ID NO: 16 (peptide)
peptide: MSRMWFLISFWAG
HELM: PEPTIDE1{M.S.R.M.W.F.L.I.S.F.W.[meA].G}$$$$V2.0
SMILES: CC[C@H](C)[C@H](NC(=O)[C@H](CC(C)C)NC(=O)[C@H](Cc1ccccc1)NC(=O)[C@H](Cc1c[nH]c2ccccc12)NC(=O)[C@H](CCSC)NC(=O)[C@H](CCCNC(=N)N)NC(=O)[C@H](CO)NC(=O)[C@@H](N)CCSC)C(=O)N[C@@H](CO)C(=O)N[C@@H](Cc1ccccc1)C(=O)N[C@@H](Cc1c[nH]c2ccccc12)C(=O)N(C)[C@@H](C)C(=O)NCC(=O)O
B6: SEQ ID NO: 20 (peptide)
peptide: KWAQSILNQHVQRVWG
HELM: PEPTIDE1{K.W.[meA].Q.S.I.L.N.Q.H.V.Q.R.V.W.G}$PEPTIDE1,PEPTIDE1,1:R3-16:R2$$$V2.0
SMILES: CC[C@H](C)[C@@H]1NC(=O)[C@H](CO)NC(=O)[C@H](CCC(N)=O)NC(=O)[C@H](C)N(C)C(=O)[C@H](Cc2c[nH]c3ccccc23)NC(=O)[C@@H](N)CCCCNC(=O)CNC(=O)[C@H](Cc2c[nH]c3ccccc23)NC(=O)[C@H](C(C)C)NC(=O)[C@H](CCCNC(=N)N)NC(=O)[C@H](CCC(N)=O)NC(=O)[C@H](C(C)C)NC(=O)[C@H](Cc2c[nH]cn2)NC(=O)[C@H](CCC(N)=O)NC(=O)[C@H](CC(N)=O)NC(=O)[C@H](CC(C)C)NC1=O
B7: SEQ ID NO: 270 (Ac-Bcl9(347-381)-AβAβK-CONH2) (peptide)
peptide: NPDGLSQEQLEHRERSLQTLRDIQRMLFPDEKEFTAAK
HELM: PEPTIDE1{[ac].N.P.D.G.L.S.Q.E.Q.L.E.H.R.E.R.S.L.Q.T.L.R.D.I.Q.R.M.L.F.P.D.E.K.E.F.T.[bAla].[bAla].K.[am]}$$$$V2.0
SMILES: CC[C@H](C)[C@H](NC(=O)[C@H](CC(=O)O)NC(=O)[C@H](CCCNC(=N)N)NC(=O)[C@H](CC(C)C)NC(=O)[C@@H](NC(=O)[C@H](CCC(N)=O)NC(=O)[C@H](CC(C)C)NC(=O)[C@H](CO)NC(=O)[C@H](CCCNC(=N)N)NC(=O)[C@H](CCC(=O)O)NC(=O)[C@H](CCCNC(=N)N)NC(=O)[C@H](Cc1c[nH]cn1)NC(=O)[C@H](CCC(=O)O)NC(=O)[C@H](CC(C)C)NC(=O)[C@H](CCC(N)=O)NC(=O)[C@H](CCC(=O)O)NC(=O)[C@H](CCC(N)=O)NC(=O)[C@H](CO)NC(=O)[C@H](CC(C)C)NC(=O)CNC(=O)[C@H](CC(=O)O)NC(=O)[C@@H]1CCCN1C(=O)[C@H](CC(N)=O)NC(C)=O)[C@@H](C)O)C(=O)N[C@@H](CCC(N)=O)C(=O)N[C@@H](CCCNC(=N)N)C(=O)N[C@@H](CCSC)C(=O)N[C@@H](CC(C)C)C(=O)N[C@@H](Cc1ccccc1)C(=O)N1CCC[C@H]1C(=O)N[C@@H](CC(=O)O)C(=O)N[C@@H](CCC(=O)O)C(=O)N[C@@H](CCCCN)C(=O)N[C@@H](CCC(=O)O)C(=O)N[C@@H](Cc1ccccc1)C(=O)N[C@H](C(=O)NCCC(=O)NCCC(=O)N[C@@H](CCCCN)C(N)=O)[C@@H](C)O
notes: Bcl9 residues 347-381, acetylated, with beta-Ala-beta-Ala-K added, amidated

The first assay addresses T1, β-catenin. As to the kind of experiment: SPR (Biacore). The protocol: (§1) Biotinylated protein (beta catenin) was immobilized on a high-affinity streptavidin (SA) sensor chip (GE). Peptide at increasing concentrations was flowed over in HBS EP+ buffer at room temperature according to manufacturer's instructions. The maximum binding capacity of the surface (response at saturation) was calculated using the Biacore® system (GE) instructions and binding was measured at each concentration as a data point. The binding levels were determined over a range of analyte concentrations of at least from 20% to 80% saturation of the surface. On rates, off rates, and KD were calculated using Biacore® Insight Evaluation Software software (GE).
(SPR reads the build-up and loss of mass on a sensor chip optically.)
Regarding B1, the Kd was found to be 1030 nM. This counts as single-digit micromolar.

Take B2: the Kd came out at 270 nM. Against the preceding molecule, the Kd is about 3.8-fold lower.

Another assay has as its target T1, β-catenin. As to the kind of experiment: competitive FP. The gist of the method:
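Competitive fluorescence polarization with inhibitor peptide serially diluted from 10 nM to 30 uM; polarization read at 470 nm excitation, 520 nm emission. Experiments performed three times.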
As to B3, the Kd is above 30000 nM.

In turn, B4 returned a Kd above 30000 nM.

In turn, H-MSRMWFLISFWMG-OH [SEQ ID NO: 14] displayed a Kd above 30000 nM.

For B5, the Kd is above 30000 nM.

Consider B1, for which the equilibrium dissociation constant (Kd) is > 400 nM and ≤ 1000 nM.

In turn, B2 displayed a Kd of at most 400 nM.

As to KMIRMWFLISFWG (cyclo-H2N-K(Aoc*)MIRM-NmeW-FLISFWG*) [SEQ ID NO: 21], the Kd was above 30000 nM.

B6 had a Kd above 30000 nM.

B7 showed a Kd above 30000 nM.

The target in the next assay is T1, β-catenin. The experiment in a line: cell-based or functional assay.
Consider B3, for which the “Wnt Reporter EC50” value was above 30000 nM.

As to B4, the “Wnt Reporter EC50” value was above 30000 nM.

Turning to H-MSRMWFLISFWMG-OH [SEQ ID NO: 14], the “Wnt Reporter EC50” value is at most 7500 nM.

For the molecule B5, the “Wnt Reporter EC50” value is > 15000 nM and ≤ 22500 nM.

With B1, the “Wnt Reporter EC50” value was above 30000 nM.

Regarding B2, the “Wnt Reporter EC50” value is above 30000 nM.

Consider KMIRMWFLISFWG (cyclo-H2N-K(Aoc*)MIRM-NmeW-FLISFWG*) [SEQ ID NO: 21], for which the “Wnt Reporter EC50” value was above 30000 nM.

As for B6, the “Wnt Reporter EC50” value is above 30000 nM.

On to Stearoyl-W[NMeW]E[αMeS]ILDEH[αMeV]QRVW-OH (393 used) [Peptide 4 (SEQ ID NO: 393/500)], for which the “Proliferation IC50, Endo cells” value stood at 5000 nM; the “Proliferation IC50, Wnt dependent cells” value turned out to be 1700 nM; the “Wnt Reporter EC50” value was at most 7500 nM.

For a further assay, the target named is T1, β-catenin. As to the kind of experiment: SPR (Biacore); SPR (Biacore), direct binding. As to the method:
as §1
As to B3, the Kd worked out at 76 nM.

For the molecule B4, the Kd is 59 nM. This Kd and that of the molecule before are within 1.5-fold of each other.

Turning to H-MSRMWFLISFWMG-OH [SEQ ID NO: 14], binding was characterised by a dissociation constant (Kd) of 250 nM.

On to B5, for which the Kd was determined as 120 nM. Against the preceding molecule, the Kd is about 2.1-fold lower.

On to KMIRMWFLISFWG (cyclo-H2N-K(Aoc*)MIRM-NmeW-FLISFWG*) [SEQ ID NO: 21], for which the affinity, expressed as Kd, was 337 nM.

In turn, B6 returned a Kd of 48 nM.

Take B7: the affinity, expressed as Kd, was 546 nM.

The next assay has as its target T2, β-catenin in mouse endometriosis lesions. The experiment in a line: immunofluorescence co-localisation in mouse lesions.
Method: Endometriosis was established in a mouse model of disease. Mice were allowed to establish endometriosis for 3 weeks. […] To assess the localization of the peptides and β-catenin, lesions from the endometriosis mouse model were assessed. On the last day of treatment, in order to visualize the peptide localization to the lesion(s), mice were dosed with a biotinylated tagged peptide therapeutic or control. Mice were euthanized, lesions were removed, and fixed in formalin for histology and immunohistochemistry. […] Immunohistochemical negative controls were performed on lesion sections from all treatment groups using IgG non-specific antibodies (Rabbit-IgG, AbCam 1:100).
On to Stearoyl-W[NMeW]E[αMeS]ILDEH[αMeV]QRVW-OH (393 used) [Peptide 4 (SEQ ID NO: 393/500)], for which the binding result was “binds”.
